Assay results from publication PMC4899722.

How the values were obtained:
[1] = target: heteromeric ASIC1a/2a (oocytes co-expressing ASIC1a and ASIC2a) (rat) (UniProt P55926)
[2] = target: ASIC1a-2a-1a concatamer (rat) (UniProt P55926)
[3] = target: ASIC1a-2a-2a concatamer (rat) (UniProt P55926)

Substance: psalmotoxin 1 (PcTx1) (from UniProt P60514 1-40) (peptide)
- current left after 50 nM PcTx1 in the conditioning solution (pH 6.95), activation with pH 4.0, two-electrode voltage clamp in Xenopus oocytes; percent of the first current amplitude [1]: 66.5%
- current left after 50 nM PcTx1 in the conditioning solution (pH 6.95), activation with pH 4.0, two-electrode voltage clamp in Xenopus oocytes; percent of the first current amplitude [2]: 15.7%
- current left after 50 nM PcTx1 in the conditioning solution (pH 6.95), activation with pH 4.0, two-electrode voltage clamp in Xenopus oocytes; percent of the first current amplitude [3]: 64.8%
